“Also recorded” adds a separate entry of the source. Where two headings read alike, the source gives them in different places. Square brackets hold non-standard residues; d marks the D form. Peptide text beside a SMILES is read from it.
What was measured:
[1] = target: T1, recombinant mouse PrP (Mus musculus, UniProt P04925); assay: biochemical; type: binding
[2] = test system: ScN2a cells; type: cell-based, murine
[3] = test system: PrP^Sc in ScN2a cells
[4] = target: PrP^C and PrP^Sc (Mus musculus, UniProt P04925); type: binding
[5] = target: PrP (Mus musculus, UniProt P04925); parameters: species or system 129 SvEv mice; details: in vivo
Chain of PrP (P04925 23-230 limits assumed): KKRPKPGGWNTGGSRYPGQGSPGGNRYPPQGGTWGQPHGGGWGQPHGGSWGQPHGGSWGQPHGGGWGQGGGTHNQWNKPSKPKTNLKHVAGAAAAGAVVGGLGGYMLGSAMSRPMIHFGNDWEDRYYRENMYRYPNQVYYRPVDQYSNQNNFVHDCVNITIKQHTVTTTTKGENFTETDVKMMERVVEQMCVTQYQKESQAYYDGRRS

[6] = test system: scrapie (RML) prions; parameters: species or system CD1 mice; details: in vivo
[7] = target: T1, recombinant mouse PrP; type: binding
Target sequence in this assay (P04925 23-230 limits assumed): as above

[8] = test system: scrapie (RML) prions; parameters: species or system C57/B6 mice; details: mouse, in vivo, ip
[9] = target: sheep PrP^C and sheep prions (Ovis aries, UniProt P23907)
[10] = test system: MBPAc1-11 T cell receptor transgenic CD4+ T cells; type: cell-based, mouse
[11] = test system: PrP^Sc in ScN2a cells; remark: listed apart in the source
[12] = test system: prions in treated ScN2a cells; parameters: species or system tg20 mice; details: mouse, in vivo
[13] = target: T1, recombinant mouse PrP

CSCC[C@@H](NC(=O)[C@@H](CC(=O)O)NC(=O)[C@@H](Cc1ccc(O)cc1)NC(=O)[C@@H](Cc1c[nH]c2ccccc12)NC(=O)CN)C(=O)N[C@H](C)C(=O)N[C@H](CC(=O)O)C(=O)N[C@H](CCCNC(=N)N)C(=O)N[C@H](CCC(=O)O)C(=O)N[C@H](Cc1c[nH]c2ccccc12)C(=O)N[C@H](CC(N)=O)C(=O)N[C@H](Cc1c[nH]c2ccccc12)C(=O)N[C@H](CCCNC(=N)N)C(=O)N[C@H](C)C(=O)N[C@H](CS)C(=O)N[C@H](Cc1ccccc1)C(=O)N[C@H](Cc1ccc(O)cc1)C(=O)O [(D-)riCDR3H, gwydmadrewnwracfy] (H-G[dW][dY][dD][dM][dA][dD][dR][dE][dW][dN][dW][dR][dA][dC][dF][dY]-OH)
Kd [1]: 1000 to 10000 nM
competition of staining by scFvW226 [2]: could be competed by scFvW226
staining pattern of live ScN2a cells [2]: staining all over the cell
antiprion activity (prion clearing) of fragments [3]: reinstated antiprion activity
concentration at which antiprion activity was exhibited [3]: 4 µM
PrP conformer recognized by immunoprecipitation / pull-down [4]: pulled down only PrP^Sc in a conformation-specific manner; also recorded: pulled down only PrP from scrapie-infected homogenates
overcoming self tolerance of humoral immune response against PrP [5]: able to overcome self tolerance of humoral immune response against PrP

H-YFCARWNWERDAMDYWG-OH [CDR3H]
competition of staining by scFvW226 [2]: could be competed by scFvW226
digestion by trypsin / protease resistance [2]: could be digested by trypsin
staining pattern of live ScN2a cells [2]: stained only intracellular compartments
PrP conformer recognized by immunoprecipitation / pull-down [4]: conformation-specific recognition of only PrP^Sc; also recorded: pulled down only PrP^Sc in a conformation-specific manner; also recorded: pulled down only PrP from scrapie-infected homogenates
clones that only recognized the immunogen [5]: 8
hybridoma secreting mABs recognizing both the immunogen and mouse PrP [5]: 28
survival of the one surviving immunized mouse ([6]; ip): > 10 months
protection from prion disease ([6]; mouse): able to protect from prion disease
average incubation time of the four immunized mice that died ([6]; mouse, ip): 205 days
binding by enzyme-linked immunosorbent assay [7]: weak binding to recombinant mouse PrP

B1: mAB W226 (antibody, V domains shown)
VH: EVQLQQSGAELARPGTSVNLSCKTSGYSFTGYGVSWVKQRIGQGLEWIGEIYPRSGNTYYNEKFKGKATLTADKSSNTAYMELRSLTSEDSAVYFCARWNWERDAMDYWGQGTSVTVSSAKTTPPSDYPLA
VL: DIVMTQTPLSLPVSLGDQASISCRSSQSLESSSGYPHLNWYLQKPGQSPQLLIYRVSNRFSGVLDRFSGSGSGTDFTLQISRVEAEDLGVYFCLQITHVPWTFGGGTKLEIKRADAAPTVSAA
survival time [8]: significant effect on increasing the survival time
weight loss [8]: none of the treated mice experienced any weight loss
binding of PrP^C from normal sheep homogenate [9]: weak binding of PrP^C from normal sheep homogenate
Kd ([1]; read-out: KD): 0.5 nM
T cell proliferation [10]: augmented proliferation of Ag-specific T cells; also recorded: increased T cell proliferation
PrP conformer recognized by immunoprecipitation / pull-down [4]: pulls down readily PrP^C from mouse brain homogenates; also recorded: binding to both PrP^C and PrP^Sc was detected

B2: scFvW226: scFv: variable heavy and light chain domains of W226 connected by (Gly4Ser)3-linker, C-terminal myc- and his6-tags; SEQ ID NO:6 (protein)
scFv: MKYLLPTAAAGLLLLAAQPAMAMAEVQLQQSGAELARPGTSVNLSCKTSGYSFTGYGVSWVKQRIGQGLEWIGEIYPRSGNTYYNEKFKGKATLTADKSSNTAYMELRSLTSEDSAVYFCARWNWERDAMDYWGQGTSVTVSSAKTTPPSDYPLAGGGGSGGGGSGGGGSDIVMTQTPLSLPVSLGDQASISCRSSQSLESSSGYPHLNWYLQKPGQSPQLLIYRVSNRFSGVLDRFSGSGSGTDFTLQISRVEAEDLGVYFCLQITHVPWTFGGGTKLEIKRADAAPTVSAAEEQKLISEEDLEHHHHHH
modifications: C-terminal myc and His6 tags; scFv
survival time [8]: significant effect on increasing the survival time
weight loss [8]: none of the treated mice experienced any weight loss
antiprion effect after transfection into ScN2a cells [11]: clear time-dependent antiprion effect
antiprion effect of conditioned medium of transfected N2a cells [11]: prions were cleared
antiprion activity [3]: antiprion active
concentrations with prion-clearing effects [3]: > 3.2 nM
minimal / smallest effective concentration clearing prions [3]: 4 nM
number of sick n/n0 [12]: 0/5
T cell proliferation [10]: augmented proliferation of Ag-specific T cells; also recorded: increased T cell proliferation
PrP conformer recognized by immunoprecipitation / pull-down [4]: recognizes both PrP^C and PrP^Sc; also recorded: could precipitate both PrP^C and PrP^Sc; also recorded: immunoprecipitated both PrP^C and PrP^Sc
binding activity to recombinant mouse PrP after heat incubation [13]: retained binding activity
binding activity to recombinant mouse PrP after serum incubation [13]: retained binding activity
